Earlier results on 1 substance are cited in US20250388691A1, “METHODS FOR TREATING LYMPHOMA” (Xencor, Inc., priority 2022, published 2025).

The subject of series [1] is R/R DLBCL. The conditions noted are these: ongoing Phase 1 study XmAb13676-01, NCT02924402.
Where [2] appears, read: plamotamab, Investigator's Brochure, 2021.

On to “plamotamab: humanized bsAb that binds both CD3 and the tumor antigen CD20; Fab-scFv-Fc format”, for which the “TLS, R/R NHL subjects” value (Phase 1 monotherapy, 2 of the 80 R/R NHL subjects) is given as 2.5%. Further, under “Phase 1 monotherapy, CD20-expressing hematologic malignancies, 4 of 96 subjects”, the “any-grade TLS, subjects” value is given as 4.2%. Moreover, the CRS result (XmAb13676-01 study, especially with the Cycle 1 Day 1 dose) is “frequently observed”. Also, for the setting “plamotamab monotherapy in R/R DLBCL”, the “serious or fatal events of TLS” value is listed as “no serious or fatal events of TLS”. Moreover, under setting [2], the “Adverse events of neutropenia (all grades)” value was 20.8% and the “Adverse events of thrombocytopenia (all grades)” value is recorded as 24.0%. The “responses in subjects with R/R DLBCL” value in series [1] is “durable responses”.
